Results taken from US20210324028A1 (Pfizer, published 2021).

What was measured:
human IL-15Rα [1] = target: T1, human IL-15Rα (human, UniProt Q13261 31-205, limits assumed); test: SPR 37C
T1 construct: also called hIL-15Rα; IL-15 receptor alpha

human IL-2Rβ [2] = target: T2, human IL-2Rβ (human, UniProt P14784 27-240, limits assumed); test: SPR 37C
T2 construct: also called hIL-2Rβ; IL-2 receptor beta
T2 sequence (looked up): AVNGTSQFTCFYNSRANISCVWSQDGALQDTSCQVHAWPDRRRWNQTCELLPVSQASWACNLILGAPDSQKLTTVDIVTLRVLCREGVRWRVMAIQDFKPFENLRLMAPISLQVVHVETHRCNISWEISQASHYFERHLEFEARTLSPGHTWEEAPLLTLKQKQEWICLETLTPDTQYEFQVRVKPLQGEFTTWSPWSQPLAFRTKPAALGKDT

human IL-2Rβ [3] = target: T2, human IL-2Rβ; test: SPR, steady state
human IL-15Rα [4] = target: T1, human IL-15Rα; test: SPR 37C, fusion captured by anti-human Fc
Protocol: (§1) Anti-human Fc sensor chips were prepared at 25° C. with a running buffer of 10 mM HEPES, 150 mM NaCl, 0.05% (v/v) Tween-20, pH 7.4. All surfaces of a Biacore CM4 sensor chip were activated with a 1:1 (v/v) mixture of 400 mM EDC and 100 mM NHS for 7 minutes, at a flow rate of 10 μL/min. An anti-human Fc reagent (Goat anti-human IgG Fc-γ specific, SouthernBiotech, Birmingham, Ala., Catalog #2014-01) was diluted to 50 μg/mL in 10 mM sodium acetate (pH 4.5) and injected on all flow cells for 7 minutes at 20 μL/min. All flow cells were blocked with 100 mM ethylenediamine in 200 mM Borate buffer pH 8.5 for 7 minutes at 10 μL/min.
(§2) All protein interaction experiments were performed at 37° C. using a running buffer of 10 mM HEPES, 150 mM NaCl, 0.05% (v/v) Tween-20, pH 7.4, 1 mg/mL BSA. Anti-PD-1-hIL-15 fusion proteins were captured at 10 μg/mL at a flow rate of 10 μL/min for 2 minutes. Different fusion proteins were captured in flow cells 2, 3 and 4. No protein was captured onto flow cell 1 which was used as a reference surface. […] After each analyte injection, dissociation was monitored for 5 minutes followed by regeneration of all flow cells with three 60-second injections of 75 mM phosphoric acid. […] For kinetic analysis, the double-referenced sensorgrams were fit globally to a simple 1:1 Langmuir with mass transport binding model using Biacore T200 Evaluation Software version 2.0. For steady-state affinity analysis, the double-referenced equilibrium binding responses were fit with a 1:1 Langmuir steady-state model using Biacore T200 Evaluation Software version 2.0.

human IL-2Rβ [5] = target: T2, human IL-2Rβ; test: SPR 37C, fusion captured by anti-human Fc
Protocol: as §1, §2

T1 sequence (Q13261 31-205 limits assumed): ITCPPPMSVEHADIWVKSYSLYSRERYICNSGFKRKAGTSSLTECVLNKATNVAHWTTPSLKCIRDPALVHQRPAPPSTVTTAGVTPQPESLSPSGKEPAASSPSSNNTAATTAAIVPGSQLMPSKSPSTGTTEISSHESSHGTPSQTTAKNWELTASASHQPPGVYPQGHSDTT

B1: hIL-15 V49R/D30P (ligand)
chain: NWVNVISDLKKIEDLIQSMHIDATLYTESPVHPSCKVTAMKCFLLELQRISLESGDASIHDTVENLIILANNSLSSNGNVTESGCKECEELEEKNIKEFLQSFVHIVQMFINTGGGGSGHHHHHHHHGGGLNDIFEAQKIEWHE
binding result (human IL-15Rα [1]): no binding

B2: hIL-15 V49R/I68P (ligand)
chain: NWVNVISDLKKIEDLIQSMHIDATLYTESDVHPSCKVTAMKCFLLELQRISLESGDASIHDTVENLIPLANNSLSSNGNVTESGCKECEELEEKNIKEFLQSFVHIVQMFINTGGGGSGHHHHHHHHGGGLNDIFEAQKIEWHE
binding result (human IL-15Rα [1]): no binding
binding result (human IL-2Rβ [2]): no binding

B3: hIL-15 V49R/L69P (ligand)
chain: NWVNVISDLKKIEDLIQSMHIDATLYTESDVHPSCKVTAMKCFLLELQRISLESGDASIHDTVENLIIPANNSLSSNGNVTESGCKECEELEEKNIKEFLQSFVHIVQMFINTGGGGSGHHHHHHHHGGGLNDIFEAQKIEWHE
binding result (human IL-15Rα [1]): no binding
binding result (human IL-2Rβ [2]): no binding

B4: hIL-15 V49R/V31K (ligand)
chain: NWVNVISDLKKIEDLIQSMHIDATLYTESDKHPSCKVTAMKCFLLELQRISLESGDASIHDTVENLIILANNSLSSNGNVTESGCKECEELEEKNIKEFLQSFVHIVQMFINTGGGGSGHHHHHHHHGGGLNDIFEAQKIEWHE
Kd (human IL-2Rβ [3]): > 500 nM
binding result (human IL-15Rα [1]): no binding

B5: hIL-15 V49R/L69K (ligand)
chain: NWVNVISDLKKIEDLIQSMHIDATLYTESDVHPSCKVTAMKCFLLELQRISLESGDASIHDTVENLIIKANNSLSSNGNVTESGCKECEELEEKNIKEFLQSFVHIVQMFINTGGGGSGHHHHHHHHGGGLNDIFEAQKIEWHE
binding result (human IL-15Rα [1]): no binding
binding result (human IL-2Rβ [2]): no binding

B6: xmPD-1-hIL15 V49R/E46G/E64Q/D30N/I68S (other)
heavy 1: HHHHHHHHGGGGSGSGGEVQLVESGGGLVKPGGSLELSCAASGFTFSSYWMSWVRQAPEKGLEWVAAISPSGGSTYYADSVKGRFTISRDNAKNTLFLQMTSLRSEDTAMYYCAKESWGAYYDLWGQGTTVTVSSASTKGPSVFPLAPCSRSTSESTAALGCLVKDYFPEPVTVSWNSGALTSGVHTFPAVLQSSGLYSLSSVVTVPSSNFGTQTYTCNVDHKPSNTKVDKTVERKCRVRCPRCPAPPVAGPSVFLFPPKPKDTLMISRTPEVTCVVVAVSHEDPEVQFNWYVDGVEVHNAKTKPREEQFNSTFRVVSVLTVVHQDWLNGKEYKCKVSNKGLPSSIEKTISKTKGQPREPQVYTLPPSREEMTKNQVSLTCLVKGFYPSDIAVEWESNGQPENNYKTTPPMLDSDGSFFLYSRLTVDKSRWQQGNVFSCSVMHEALHNHYTQKSLSLSPGK
heavy 2: EVQLVESGGGLVKPGGSLELSCAASGFTFSSYWMSWVRQAPEKGLEWVAAISPSGGSTYYADSVKGRFTISRDNAKNTLFLQMTSLRSEDTAMYYCAKESWGAYYDLWGQGTTVTVSSASTKGPSVFPLAPCSRSTSESTAALGCLVKDYFPEPVTVSWNSGALTSGVHTFPAVLQSSGLYSLSSVVTVPSSNFGTQTYTCNVDHKPSNTKVDKTVERKCEVECPECPAPPVAGPSVFLFPPKPKDTLMISRTPEVTCVVVAVSHEDPEVQFNWYVDGVEVHNAKTKPREEQFNSTFRVVSVLTVVHQDWLNGKEYKCKVSNKGLPSSIEKTISKTKGQPREPQVYTLPPSREEMTKNQVSLTCEVKGFYPSDIAVEWESNGQPENNYKTTPPMLDSDGSFFLYSKLTVDKSRWQQGNVFSCSVMHEALHNHYTQKSLSLSPGSGGGGGTSATATPGANWVNVISDLKKIEDLIQSMHIDATLYTESNVHPSCKVTAMKCFLLGLQRISLESGDASIHDTVQNLISLANNSLSSNGNVTESGCKECEELEEKNIKEFLQSFVHIVQMFINT
light: DIVMTQSPSSLSVSAGDKVTMSCRASQGISSWLAWYQQKPWQPPKLLIYKASTLESGVPDRFTGSGSGTDFTLTISSVQAEDLAVYYCQQSYSTPWTFGGGTKLEIKGTVAAPSVFIFPPSDEQLKSGTASVVCLLNNFYPREAKVQWKVDNALQSGNSQESVTEQDSKDSTYSLSSTLTLSKADYEKHKVYACEVTHQGLSSPVTKSFNRGEC
notes: not restated for this mutant; also called xmPD1-hIL15_V49R-E46G-E64Q-I68S-D30N
binding result (human IL-15Rα [4]): no binding (tested: 3000 nM)
binding result (human IL-2Rβ [5]): no binding (tested: 3000 nM)

B7: xmPD-1-hIL15 V49R/E46G/E64Q/D30N/N4K (other)
heavy 1: HHHHHHHHGGGGSGSGGEVQLVESGGGLVKPGGSLELSCAASGFTFSSYWMSWVRQAPEKGLEWVAAISPSGGSTYYADSVKGRFTISRDNAKNTLFLQMTSLRSEDTAMYYCAKESWGAYYDLWGQGTTVTVSSASTKGPSVFPLAPCSRSTSESTAALGCLVKDYFPEPVTVSWNSGALTSGVHTFPAVLQSSGLYSLSSVVTVPSSNFGTQTYTCNVDHKPSNTKVDKTVERKCRVRCPRCPAPPVAGPSVFLFPPKPKDTLMISRTPEVTCVVVAVSHEDPEVQFNWYVDGVEVHNAKTKPREEQFNSTFRVVSVLTVVHQDWLNGKEYKCKVSNKGLPSSIEKTISKTKGQPREPQVYTLPPSREEMTKNQVSLTCLVKGFYPSDIAVEWESNGQPENNYKTTPPMLDSDGSFFLYSRLTVDKSRWQQGNVFSCSVMHEALHNHYTQKSLSLSPGK
heavy 2: EVQLVESGGGLVKPGGSLELSCAASGFTFSSYWMSWVRQAPEKGLEWVAAISPSGGSTYYADSVKGRFTISRDNAKNTLFLQMTSLRSEDTAMYYCAKESWGAYYDLWGQGTTVTVSSASTKGPSVFPLAPCSRSTSESTAALGCLVKDYFPEPVTVSWNSGALTSGVHTFPAVLQSSGLYSLSSVVTVPSSNFGTQTYTCNVDHKPSNTKVDKTVERKCEVECPECPAPPVAGPSVFLFPPKPKDTLMISRTPEVTCVVVAVSHEDPEVQFNWYVDGVEVHNAKTKPREEQFNSTFRVVSVLTVVHQDWLNGKEYKCKVSNKGLPSSIEKTISKTKGQPREPQVYTLPPSREEMTKNQVSLTCEVKGFYPSDIAVEWESNGQPENNYKTTPPMLDSDGSFFLYSKLTVDKSRWQQGNVFSCSVMHEALHNHYTQKSLSLSPGSGGGGGTSATATPGANWVKVISDLKKIEDLIQSMHIDATLYTESNVHPSCKVTAMKCFLLGLQRISLESGDASIHDTVQNLIILANNSLSSNGNVTESGCKECEELEEKNIKEFLQSFVHIVQMFINT
light: DIVMTQSPSSLSVSAGDKVTMSCRASQGISSWLAWYQQKPWQPPKLLIYKASTLESGVPDRFTGSGSGTDFTLTISSVQAEDLAVYYCQQSYSTPWTFGGGTKLEIKGTVAAPSVFIFPPSDEQLKSGTASVVCLLNNFYPREAKVQWKVDNALQSGNSQESVTEQDSKDSTYSLSSTLTLSKADYEKHKVYACEVTHQGLSSPVTKSFNRGEC
notes: not restated for this mutant; also called xmPD1-hIL15_V49R-E46G-N4K-E64Q-D30N
binding result (human IL-15Rα [4]): no binding (tested: 3000 nM)
binding result (human IL-2Rβ [5]): no binding (tested: 3000 nM)

B8: xmPD-1-hIL15 V49R/E46G/E64Q/D30N/I68S/M109A (other)
heavy 1: HHHHHHHHGGGGSGSGGEVQLVESGGGLVKPGGSLELSCAASGFTFSSYWMSWVRQAPEKGLEWVAAISPSGGSTYYADSVKGRFTISRDNAKNTLFLQMTSLRSEDTAMYYCAKESWGAYYDLWGQGTTVTVSSASTKGPSVFPLAPCSRSTSESTAALGCLVKDYFPEPVTVSWNSGALTSGVHTFPAVLQSSGLYSLSSVVTVPSSNFGTQTYTCNVDHKPSNTKVDKTVERKCRVRCPRCPAPPVAGPSVFLFPPKPKDTLMISRTPEVTCVVVAVSHEDPEVQFNWYVDGVEVHNAKTKPREEQFNSTFRVVSVLTVVHQDWLNGKEYKCKVSNKGLPSSIEKTISKTKGQPREPQVYTLPPSREEMTKNQVSLTCLVKGFYPSDIAVEWESNGQPENNYKTTPPMLDSDGSFFLYSRLTVDKSRWQQGNVFSCSVMHEALHNHYTQKSLSLSPGK
heavy 2: EVQLVESGGGLVKPGGSLELSCAASGFTFSSYWMSWVRQAPEKGLEWVAAISPSGGSTYYADSVKGRFTISRDNAKNTLFLQMTSLRSEDTAMYYCAKESWGAYYDLWGQGTTVTVSSASTKGPSVFPLAPCSRSTSESTAALGCLVKDYFPEPVTVSWNSGALTSGVHTFPAVLQSSGLYSLSSVVTVPSSNFGTQTYTCNVDHKPSNTKVDKTVERKCEVECPECPAPPVAGPSVFLFPPKPKDTLMISRTPEVTCVVVAVSHEDPEVQFNWYVDGVEVHNAKTKPREEQFNSTFRVVSVLTVVHQDWLNGKEYKCKVSNKGLPSSIEKTISKTKGQPREPQVYTLPPSREEMTKNQVSLTCEVKGFYPSDIAVEWESNGQPENNYKTTPPMLDSDGSFFLYSKLTVDKSRWQQGNVFSCSVMHEALHNHYTQKSLSLSPGSGGGGGTSATATPGANWVNVISDLKKIEDLIQSMHIDATLYTESNVHPSCKVTAMKCFLLGLQRISLESGDASIHDTVQNLISLANNSLSSNGNVTESGCKECEELEEKNIKEFLQSFVHIVQAFINT
light: DIVMTQSPSSLSVSAGDKVTMSCRASQGISSWLAWYQQKPWQPPKLLIYKASTLESGVPDRFTGSGSGTDFTLTISSVQAEDLAVYYCQQSYSTPWTFGGGTKLEIKGTVAAPSVFIFPPSDEQLKSGTASVVCLLNNFYPREAKVQWKVDNALQSGNSQESVTEQDSKDSTYSLSSTLTLSKADYEKHKVYACEVTHQGLSSPVTKSFNRGEC
notes: not restated for this mutant; also called xmPD1-hIL15_V49R-E46G-E64Q-I68S-D30N-M109A
binding result (human IL-15Rα [4]): no binding (tested: 3000 nM)
binding result (human IL-2Rβ [5]): no binding (tested: 3000 nM)
